T1: TNFR1 (Homo sapiens, UniProt P19438)
T1 chain: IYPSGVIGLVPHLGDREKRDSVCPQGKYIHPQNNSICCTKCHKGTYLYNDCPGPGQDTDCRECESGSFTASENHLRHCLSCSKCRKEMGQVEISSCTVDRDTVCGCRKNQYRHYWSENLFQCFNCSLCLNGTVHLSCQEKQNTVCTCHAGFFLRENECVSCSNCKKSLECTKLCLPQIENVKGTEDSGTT

B1: K35R (designed binder)
chain: MTLQELLREEALRRAEAEAFRYALELLAEKFPEQREYLLDLAEEIESQIRSLSGVDVEDVRKFLDKEWAWVKELLAEHPAELAEVEAARAARLAELRAEVEAKVAA
B2: L41Y (designed binder)
chain: MTLQELLREEALRRAEAEAFRYALELLAEKFPEQKEYLLDYAEEIESQIRSLSGVDVEDVRKFLDKEWAWVKELLAEHPAELAEVEAARAARLAELRAEVEAKVAA
B3: L7M (designed binder)
chain: MTLQELMREEALRRAEAEAFRYALELLAEKFPEQKEYLLDLAEEIESQIRSLSGVDVEDVRKFLDKEWAWVKELLAEHPAELAEVEAARAARLAELRAEVEAKVAA
B4: L12E (designed binder)
chain: MTLQELLREEAERRAEAEAFRYALELLAEKFPEQKEYLLDLAEEIESQIRSLSGVDVEDVRKFLDKEWAWVKELLAEHPAELAEVEAARAARLAELRAEVEAKVAA
B5: R97K (designed binder)
chain: MTLQELLREEALRRAEAEAFRYALELLAEKFPEQKEYLLDLAEEIESQIRSLSGVDVEDVRKFLDKEWAWVKELLAEHPAELAEVEAARAARLAELKAEVEAKVAA
B6: R14V (designed binder)
chain: MTLQELLREEALRVAEAEAFRYALELLAEKFPEQKEYLLDLAEEIESQIRSLSGVDVEDVRKFLDKEWAWVKELLAEHPAELAEVEAARAARLAELRAEVEAKVAA
B7: R14Q (designed binder)
chain: MTLQELLREEALRQAEAEAFRYALELLAEKFPEQKEYLLDLAEEIESQIRSLSGVDVEDVRKFLDKEWAWVKELLAEHPAELAEVEAARAARLAELRAEVEAKVAA
B8: A19Q (designed binder)
chain: MTLQELLREEALRRAEAEQFRYALELLAEKFPEQKEYLLDLAEEIESQIRSLSGVDVEDVRKFLDKEWAWVKELLAEHPAELAEVEAARAARLAELRAEVEAKVAA
B9: Y22E (designed binder)
chain: MTLQELLREEALRRAEAEAFREALELLAEKFPEQKEYLLDLAEEIESQIRSLSGVDVEDVRKFLDKEWAWVKELLAEHPAELAEVEAARAARLAELRAEVEAKVAA
B10: A28V (designed binder)
chain: MTLQELLREEALRRAEAEAFRYALELLVEKFPEQKEYLLDLAEEIESQIRSLSGVDVEDVRKFLDKEWAWVKELLAEHPAELAEVEAARAARLAELRAEVEAKVAA
B11: K62L (designed binder)
chain: MTLQELLREEALRRAEAEAFRYALELLAEKFPEQKEYLLDLAEEIESQIRSLSGVDVEDVRLFLDKEWAWVKELLAEHPAELAEVEAARAARLAELRAEVEAKVAA
B12: E99H (designed binder)
chain: MTLQELLREEALRRAEAEAFRYALELLAEKFPEQKEYLLDLAEEIESQIRSLSGVDVEDVRKFLDKEWAWVKELLAEHPAELAEVEAARAARLAELRAHVEAKVAA
B13: R14C (designed binder)
chain: MTLQELLREEALRCAEAEAFRYALELLAEKFPEQKEYLLDLAEEIESQIRSLSGVDVEDVRKFLDKEWAWVKELLAEHPAELAEVEAARAARLAELRAEVEAKVAA
B14: E46T (designed binder)
chain: MTLQELLREEALRRAEAEAFRYALELLAEKFPEQKEYLLDLAEEITSQIRSLSGVDVEDVRKFLDKEWAWVKELLAEHPAELAEVEAARAARLAELRAEVEAKVAA
B15: E101M (designed binder)
chain: MTLQELLREEALRRAEAEAFRYALELLAEKFPEQKEYLLDLAEEIESQIRSLSGVDVEDVRKFLDKEWAWVKELLAEHPAELAEVEAARAARLAELRAEVMAKVAA
B16: K62R (designed binder)
chain: MTLQELLREEALRRAEAEAFRYALELLAEKFPEQKEYLLDLAEEIESQIRSLSGVDVEDVRRFLDKEWAWVKELLAEHPAELAEVEAARAARLAELRAEVEAKVAA
B17: P79N (designed binder)
chain: MTLQELLREEALRRAEAEAFRYALELLAEKFPEQKEYLLDLAEEIESQIRSLSGVDVEDVRKFLDKEWAWVKELLAEHNAELAEVEAARAARLAELRAEVEAKVAA
B18: L27E (designed binder)
chain: MTLQELLREEALRRAEAEAFRYALELEAEKFPEQKEYLLDLAEEIESQIRSLSGVDVEDVRKFLDKEWAWVKELLAEHPAELAEVEAARAARLAELRAEVEAKVAA
B19: A17C (designed binder)
chain: MTLQELLREEALRRAECEAFRYALELLAEKFPEQKEYLLDLAEEIESQIRSLSGVDVEDVRKFLDKEWAWVKELLAEHPAELAEVEAARAARLAELRAEVEAKVAA
B20: A94M (designed binder)
chain: MTLQELLREEALRRAEAEAFRYALELLAEKFPEQKEYLLDLAEEIESQIRSLSGVDVEDVRKFLDKEWAWVKELLAEHPAELAEVEAARAARLMELRAEVEAKVAA
B21: G54Q (designed binder)
chain: MTLQELLREEALRRAEAEAFRYALELLAEKFPEQKEYLLDLAEEIESQIRSLSQVDVEDVRKFLDKEWAWVKELLAEHPAELAEVEAARAARLAELRAEVEAKVAA
B22: E44F (designed binder)
chain: MTLQELLREEALRRAEAEAFRYALELLAEKFPEQKEYLLDLAEFIESQIRSLSGVDVEDVRKFLDKEWAWVKELLAEHPAELAEVEAARAARLAELRAEVEAKVAA
B23: E86P (designed binder)
chain: MTLQELLREEALRRAEAEAFRYALELLAEKFPEQKEYLLDLAEEIESQIRSLSGVDVEDVRKFLDKEWAWVKELLAEHPAELAEVPAARAARLAELRAEVEAKVAA
B24: E81I (designed binder)
chain: MTLQELLREEALRRAEAEAFRYALELLAEKFPEQKEYLLDLAEEIESQIRSLSGVDVEDVRKFLDKEWAWVKELLAEHPAILAEVEAARAARLAELRAEVEAKVAA
B25: E16H (designed binder)
chain: MTLQELLREEALRRAHAEAFRYALELLAEKFPEQKEYLLDLAEEIESQIRSLSGVDVEDVRKFLDKEWAWVKELLAEHPAELAEVEAARAARLAELRAEVEAKVAA
B26: R50S (designed binder)
chain: MTLQELLREEALRRAEAEAFRYALELLAEKFPEQKEYLLDLAEEIESQISSLSGVDVEDVRKFLDKEWAWVKELLAEHPAELAEVEAARAARLAELRAEVEAKVAA
B27: L93Y (designed binder)
chain: MTLQELLREEALRRAEAEAFRYALELLAEKFPEQKEYLLDLAEEIESQIRSLSGVDVEDVRKFLDKEWAWVKELLAEHPAELAEVEAARAARYAELRAEVEAKVAA
B28: L26S (designed binder)
chain: MTLQELLREEALRRAEAEAFRYALESLAEKFPEQKEYLLDLAEEIESQIRSLSGVDVEDVRKFLDKEWAWVKELLAEHPAELAEVEAARAARLAELRAEVEAKVAA
B29: R8Y (designed binder)
chain: MTLQELLYEEALRRAEAEAFRYALELLAEKFPEQKEYLLDLAEEIESQIRSLSGVDVEDVRKFLDKEWAWVKELLAEHPAELAEVEAARAARLAELRAEVEAKVAA
B30: E101W (designed binder)
chain: MTLQELLREEALRRAEAEAFRYALELLAEKFPEQKEYLLDLAEEIESQIRSLSGVDVEDVRKFLDKEWAWVKELLAEHPAELAEVEAARAARLAELRAEVWAKVAA
B31: K72C (designed binder)
chain: MTLQELLREEALRRAEAEAFRYALELLAEKFPEQKEYLLDLAEEIESQIRSLSGVDVEDVRKFLDKEWAWVCELLAEHPAELAEVEAARAARLAELRAEVEAKVAA
B32: E46M (designed binder)
chain: MTLQELLREEALRRAEAEAFRYALELLAEKFPEQKEYLLDLAEEIMSQIRSLSGVDVEDVRKFLDKEWAWVKELLAEHPAELAEVEAARAARLAELRAEVEAKVAA
B33: L26G (designed binder)
chain: MTLQELLREEALRRAEAEAFRYALEGLAEKFPEQKEYLLDLAEEIESQIRSLSGVDVEDVRKFLDKEWAWVKELLAEHPAELAEVEAARAARLAELRAEVEAKVAA
B34: E25H (designed binder)
chain: MTLQELLREEALRRAEAEAFRYALHLLAEKFPEQKEYLLDLAEEIESQIRSLSGVDVEDVRKFLDKEWAWVKELLAEHPAELAEVEAARAARLAELRAEVEAKVAA
B35: E29Y (designed binder)
chain: MTLQELLREEALRRAEAEAFRYALELLAYKFPEQKEYLLDLAEEIESQIRSLSGVDVEDVRKFLDKEWAWVKELLAEHPAELAEVEAARAARLAELRAEVEAKVAA

Target: T1, TNFR1
Assay: yeast display SC50

Row | Binder | apparent Kd (screen) [nM]
1 | B1 | 0.49
2 | B2 | 0.718
3 | B3 | 2.48
4 | B4 | 1.27
5 | B5 | 0.539
6 | B6 | 0.956
7 | B7 | 0.593
8 | B8 | 0.446
9 | B9 | 0.304
10 | B10 | 2.05
11 | B11 | 0.653
12 | B12 | 0.49
13 | B13 | 0.539
14 | B14 | 0.653
15 | B15 | 0.653
16 | B16 | 0.539
17 | B17 | 0.539
18 | B18 | 0.869

Row | Binder | apparent Kd (screen) [nM]
19 | B19 | 0.446
20 | B20 | 0.718
21 | B21 | 1.05
22 | B22 | 16.7
23 | B23 | 4.83
24 | B24 | 0.49
25 | B25 | 0.718
26 | B26 | 0.653
27 | B27 | 0.539
28 | B28 | 0.49
29 | B29 | 1.05
30 | B30 | 0.49
31 | B31 | 0.718
32 | B32 | 0.49
33 | B33 | 0.446
34 | B34 | 0.718
35 | B35 | 0.539

Reference: paper PMC12416549 (2024)
